For 1 molecule, EC50 results are on record in US20170035908A1 (published 2017).

In the assay the target is T1, PAM4 antigen (pancreatic cancer mucin, CaPan1 human pancreatic tumor).
T1 construct: also called CaPan1 Ag; CaPan1 antigens
Description: ELISA on target mucin antigen (FIG. 9).

B1: humanized PAM4 antibody (antibody, V domains shown)
VH: QVQLQQSGAEVKKPGASVKVSCEASGYTFPSYVLHWVKQAPGQGLEWIGYINPYNDGTQYNEKFKGKATLTRDTSINTAYMELSRLRSDDTAVYYCARGFGGSYGFAYWGQGTLVTVSS
VL: DIQLTQSPSSLSASVGDRVTMTCSASSSVSSSYLYWYQQKPGKAPKLWIYSTSNLASGVPARFSGSGSGTDFTLTISSLQPEDSASYFCHQWNRYPYTFGGGTRLEIKR
notes: also called hPAM4; hPAM4 IgG
With B1, the EC50 (commonly the concentration at which the effect is half-maximal) was determined as 1.31 nM.
